Data published in patent US20220396632A1 (VERSEAU THERAPEUTICS, published 2022).
Numbering of substitutions follows the chain as printed.

T1: Recombinant human PSGL-1(ECD)-hFc1 (R&D Systems, Cat. 3345-PS) (human, UniProt Q14242 42-305)
T1 construct: Bought; Gln42-Val295 counted on AAC50061; also called PSGL-1-Fc; PSGL-1-hFc1 chimera; not shown: human IgG1 Fc, Pro100-Lys330
T1 sequence: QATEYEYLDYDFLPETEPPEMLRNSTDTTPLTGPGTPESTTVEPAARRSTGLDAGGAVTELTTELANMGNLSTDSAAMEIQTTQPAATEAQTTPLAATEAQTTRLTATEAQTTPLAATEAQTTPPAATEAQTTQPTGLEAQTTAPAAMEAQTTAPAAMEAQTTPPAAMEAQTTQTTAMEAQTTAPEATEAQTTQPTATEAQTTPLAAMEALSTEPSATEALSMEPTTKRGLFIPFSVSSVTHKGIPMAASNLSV

T2: Biotin PSGL-1(42-62) peptide, unmodified (human, C-terminal Lys-biotin)
T2 construct: Residues 42-62 followed by GGGK-biotin; also called WT; wild-type
T2 peptide: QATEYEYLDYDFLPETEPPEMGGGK

T3: Biotin Y46,48,51(SO3) PSGL-1(42-62) peptide (human, sulfotyrosine at Y46, Y48 and Y51; C-terminal Lys-biotin)
T3 construct: also called fully sulfated N-terminal PSGL-1 peptide
T3 peptide: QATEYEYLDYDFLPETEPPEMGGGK

T4: Scrambled Y46,48,51(SO3) PSGL-1(42-62) biotin peptide (sulfotyrosine at peptide positions 5, 7 and 10; C-terminal Lys-biotin)
T4 construct: also called scrambled sulfated peptide: biotin
T4 peptide: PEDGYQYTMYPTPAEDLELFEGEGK

T5: Biotin sY51 PSGL-1(42-62) peptide (human, sulfotyrosine at Y51; C-terminal Lys-biotin)
T5 construct: also called Y51(SO3) PSGL-1(42-62)
T5 peptide: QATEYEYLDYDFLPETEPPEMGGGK

T6: Cynomolgus PSGL-1(ECD)-HIS (cynomolgus macaque)
T6 construct: also called Cyno PSGL1-His
T6 chain: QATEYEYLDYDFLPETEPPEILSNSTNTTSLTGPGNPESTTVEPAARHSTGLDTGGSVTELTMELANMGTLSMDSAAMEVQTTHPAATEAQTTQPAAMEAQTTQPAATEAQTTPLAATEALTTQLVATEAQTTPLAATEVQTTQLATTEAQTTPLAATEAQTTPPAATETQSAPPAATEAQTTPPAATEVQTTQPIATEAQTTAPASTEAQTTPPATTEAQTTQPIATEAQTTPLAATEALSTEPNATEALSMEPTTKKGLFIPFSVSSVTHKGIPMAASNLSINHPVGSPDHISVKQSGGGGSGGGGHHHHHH

B1: 5E12 (antibody, V domains shown)
VH: EIQLQQSGAELVRPGASVKLSCTASGFNIKDDYIHWVKQRPEQGLEWIGRIDPANGNTKSAPKFQDKATITADTSSNTAYLHLSSLTSEDTAVYYCSIRFAYWGQGTLVTVSA
VL: DVVMTQTPLSLSVSLGDQASISCRSSQSLVYRNGDTYLHWFLQKPGQSPKLLIYKVSNRFSGVPDRFSGSGSGTDFTLKISRVEAEDLGIYFCSQNTHVPYTFGGGTKLEIK
notes: Mouse hybridoma mAb; only variable domains given
B2: 18F02 (antibody, V domains shown)
VH: QVQLQQPGAELVKPGASVKLSCKASGYTFTSYWMHWVKQRPGQGLEWIGMIHPNSGRTNYNEKFKSKATLTVDKSSSTAYMQLSSLTSEDSAVYYCARSDYWGQGTTLTVSS
VL: DIVMTQAAFSNPVTLGTSASISCRSSKSLLHSDGITYLYWFLQRPGQSPQLLIYRMSNLASGVPDRFSGSGSGTDFTLRISRVEAEDVGVYYCAQMLEFPRTFGGGTKLEIK
notes: From mouse immunisation; only variable domains given
B3: 16L15 (antibody, V domains shown)
VH: DVKLVESGGGLVKLGGSLKLSCAASGFTFSSYYMSWVRQTPEKRLEWVATISNGGGSTYYPDSVKDRFTISRDNAKNTLYLQMSSLNSEDTAVYYCAKPLYYSNPWFAYWGQGTLVTVSA
VL: DVLLTQTPLSLPVSLGDQASISCRSSQSIVHSNGNTYLEWYLQKPGQSPKLLIYKVSNRFSGVPDRFSGSGSGTDFTLKISRVEAEDLGVYYCFQGSHVPRTFGGGTKLEIK
notes: as for B2
B4: 19I01 (antibody, V domains shown)
VH: EVQLVESGGGLVKPGGSRKLSCAASGFTFSDYGMHWVRQAPEKGLEWVAYISSGSSTIYYADTVKGRFTISRDNAKNTLFLQMTSLRSEDTAMYYCARGVDGYWGQGTTLTVSS
VL: DVVMTQTPLSLPVSLGDQASISCRSSQSLVHSNGNTYLHWYLQKPGQSPKFLIYKVSNRFSGVPDRFSGSGSGTDFTLKISRVEAEDLGVYFCSQTTHVPLTFGAGTKLELK
notes: From mouse immunisation; only variable domains given; also called 19101
B5: 2E12 (antibody, V domains shown)
VH: QVQLQQSGAELARPGASVKLSCKASGYTFTNYGLNWVKQRTGQGLEWIGEIYPRSGNTYYNEKFKGKATLTADKSSSTAYMQLSSLTSEDSAVYFCATEGAYWGQGTLVTVSA
VL: DIVMTQTPLTLSVTIGQPASISCKSSQSLLHGNGKTYLNWLLQRPGQSPKLLIYLVSKLESGIPDRFSGSGSGTDFTLEISRVEAEDLGIYYCLQSTHFPRTFGGGTKLEIK
notes: as for B1
B6: 20I15 (antibody, V domains shown)
VH: EVKLVESGGGLVQPGGSLSLSCAASGFTFTDYYMSWVRQPPGKALEWLGFIRNKANGYTTEYSASVKGRFTISRDNSQSILYLQMNALRAEDSATYYCARTYLRRGYFDVWGTGTTVTVSS
VL: DIVLTQSPASLAVSLGQRATISCRASKSVSTSGYSYMHWFQQKPGQPPKLLIYLASNLESGVPARFSGSGSGTDFTLNIHPVEEEDAATYYCQHSRELPLTFGAGTKLELK
notes: From mouse immunisation; only variable domains given; also called 20115
B7: 43B6 (antibody, V domains shown)
VH: EVQLQQSGPDLVKPGALVKISCKASGYSFTAYYIHWVKQSHGKSLEWIGRVNPNTGGTSYNPKFKGKAILNVDKSSSTAYMELRSLTSEDSAVYYCARSGSPYYRYDDWGQGTTLTVSS
VL: ENVLTQSPAIMSASPGEKVTMTCRASSTVNSTYLHWFQQKSGASPKLWIYGSSNLASGVPARFSGSGSGTSYSLTISSVEAEDAATYYCQQYSGYPLTFGAGTTLELK
notes: Control anti-PSGL-1 mAb, recombinant; only variable domains given; also called 43B3
B8: 9F9 (antibody, V domains shown)
VH: EVQLVETGGGLVQPKGSLKLSCAASGFTFNTNAMNWVRQAPGKGLEWVARIRSKSNNYATYYADSVKDRFTISRDDTQSMIYLQMNNLKTEDTGMYYCVRGGSYWYFDVWGAGTTVTVSS
VL: B3 VL with L4M, H31N, R101W
notes: Control anti-PSGL-1 mAb, recombinant; only variable domains given; also called 9F6
B9: 19L04 (antibody, IgG4, V domains shown)
VH: QIQLVQSGPELKKPGETVKISCKASGYTFTTYGMSWVKQAPGKGLKWMGWINTYSGVPTYADDFKGRFAFSLETSASTAYLQINNLKIEDTATYFCARHYYGSHYFDYWGQGTTLTVSS
VL: DIMMTQSPSSLAMSVGQKVTLRCKSSQSLLNSSNQKNYLAWYQQKPGQSPKLLVYFASTRESGVPVRFIGSGSGTDFTLTISSMQAEDLADYFCQQHYFSPLTFGAGTKLELK
notes: as for B2
B10: 19N05 (antibody, V domains shown)
VH: B9 VH with Y60F, I88N, Y94F, H99N, S103N
VL: DVQITQSPSYLAASPGETISINCRASNNINKYLAWYQEKPGKTNKLLIYSGSTLQSGIPSRFSGSGSGTDFTLTISSLEPEDFAMYHCQQHNYYPLTFGAGTKLELK
notes: as for B2
B11: 05D01 (antibody, V domains shown)
VH: QVTLRESGGALVQPGGSLRLSCAASGFPLRSNAMTWVRQAPGKGLEWVSDIRGNGASTYYADSVKGRFTISRDDSNNILFLQMNSLRAEDTAVYYCVGHGSSSYWGQGTLVTVSS
VL: DVVMTQSPLSLPVTLGQPASISCRSSQSLVYRDGNIYLNWFQQRPGQSPRRLIYKVSNRDSGVPDRFSGSGSGTDFTLKISRVEAEDVGVYYCMQLTHWPPGFAQGTKLEIK

Molecular target: T1, Recombinant human PSGL-1(ECD)-hFc1 (R&D …)
Assay: blocking ELISA vs L-selectin-Fc
Method in brief: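 Coat: PSGL-1-Fc 2.5 ug/mL, PBS pH 7.4, 4° C overnight. Ab serial dilutions in duplicate, 3% BSA buffer, 45 min 37° C. HRP-streptavidin 45 min 37° C. IC50 by sigmoidal fit.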

| Binder | % max Block | IC50 |
| --- | --- | --- |
| B1 | 0% | – |
| B2 | 100% | 10 nM |
| B3 | 100% | 9 nM |
| B4 | 100% | 5 nM |
| B5 | 0% | – |
| B6 | 65% | 20 nM |
| B7 | 100% | 6 nM |
| B8 | 100% | 10 nM |
| B9 | 0% | – |
| B10 | 0% | – |

Molecular target: T7, Cynomolgus PSGL-1(ECD)-hFc1 (cynomolgus macaque)
T7 construct: also called Cyno PSGL1-Fc; Cyno PSGL-1(ECD)-Fc
T7 sequence (chain, as listed by the source limits assumed): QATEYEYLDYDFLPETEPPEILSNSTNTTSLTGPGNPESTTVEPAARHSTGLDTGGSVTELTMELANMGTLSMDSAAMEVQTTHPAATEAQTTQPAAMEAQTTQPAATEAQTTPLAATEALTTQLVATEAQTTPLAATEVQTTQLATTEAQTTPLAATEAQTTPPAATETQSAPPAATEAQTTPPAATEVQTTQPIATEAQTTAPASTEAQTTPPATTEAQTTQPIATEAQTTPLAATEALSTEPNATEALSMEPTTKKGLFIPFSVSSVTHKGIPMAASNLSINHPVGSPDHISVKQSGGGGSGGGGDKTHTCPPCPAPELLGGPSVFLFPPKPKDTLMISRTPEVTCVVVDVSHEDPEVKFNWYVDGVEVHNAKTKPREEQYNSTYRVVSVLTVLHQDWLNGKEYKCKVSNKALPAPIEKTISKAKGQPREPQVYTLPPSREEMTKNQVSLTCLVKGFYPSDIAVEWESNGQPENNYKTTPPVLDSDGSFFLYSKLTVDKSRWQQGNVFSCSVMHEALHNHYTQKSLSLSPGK
Assay: ELISA, 20 nM mAb on plate cyno PSGL-1(ECD)-Fc
Method in brief: (§1)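 Cyno PSGL-1 ECD protein coated overnight at 4° C. at 3 ug/mL in PBS pH 7.4; anti-PSGL-1 IgG added either at single 20 nM or as 0.003-200 nM binding curve, 45 min at 37° C. Bound mAb read at A450 nm with HRP/TMB; duplicates averaged, background subtracted.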

| Binder | A450nm |
| --- | --- |
| B2 | 2 A450 nm |
| B3 | 1.22 A450 nm |
| B11 | 1.38 A450 nm |

Molecular target: T2, Biotin PSGL-1(42-62) peptide, unmodified
Assay: ELISA, plate-bound target

| Binder | EC50 |
| --- | --- |
| B1 | 0.86 nM |
| B2 | 0.68 nM |
| B3 | 0.89 nM |
| B4 | 0.92 nM |
| B5 | 1.02 nM |
| B7 | 0.03 nM |
| B8 | 0.04 nM |

Molecular target: T3, Biotin Y46,48,51(SO3) PSGL-1(42-62) …
Assay: ELISA, plate-bound target

| Binder | EC50 |
| --- | --- |
| B1 | 0.92 nM |
| B2 | 0.45 nM |
| B3 | 0.92 nM |
| B4 | 0.92 nM |
| B5 | 1.21 nM |
| B7 | 0.04 nM |
| B8 | 0.05 nM |

Molecular target: T1, Recombinant human PSGL-1(ECD)-hFc1 (R&D …)
Assay: ELISA, plate-bound target

| Binder | EC50 |
| --- | --- |
| B1 | 0.51 nM |
| B2 | 0.57 nM |
| B3 | 0.96 nM |
| B4 | 1.23 nM |
| B5 | 0.6 nM |
| B7 | 0.05 nM |
| B8 | 0.06 nM |

Molecular target: T4, Scrambled Y46,48,51(SO3) PSGL-1(42-62) …
Assay: ELISA, immobilized biotin peptide
Method in brief: (§2)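 In this ELISA, half-well high binding plates (Corning Cat. #3690) received 3 ug/mL/25 ul per well of biotin-tagged PSGL-1 peptides covering residues 42 to 62, diluted in PBS, pH 7.4, and coated overnight at 4° C. Duplicate readings for each antibody were averaged and the average assay background was subtracted. PSGL-1 protein or peptide was the positive control.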

| Binder | EC50 | binding result |
| --- | --- | --- |
| B1 | 32.3 nM | – |
| B2 | – | no binding |
| B3 | – | no binding |
| B4 | 198 nM | – |
| B5 | 30 nM | – |
| B11 | 1.33 nM | – |
| B6 | – | no binding |

Molecular target: T5, Biotin sY51 PSGL-1(42-62) peptide
Assay: ELISA, immobilized biotin peptide
Method in brief: as §2

| Binder | EC50 |
| --- | --- |
| B1 | 0.547 nM |
| B2 | 0.705 nM |
| B3 | 0.814 nM |
| B4 | 1.22 nM |
| B5 | 0.659 nM |
| B6 | 178 nM |

Molecular target: T6, Cynomolgus PSGL-1(ECD)-HIS
Assay: ELISA, plate cyno PSGL-1(ECD)-HIS
Method in brief: as §1

| Binder | EC50 |
| --- | --- |
| B1 | 0.59 nM |
| B2 | 0.51 nM |
| B3 | 0.53 nM |
| B4 | 0.68 nM |
| B5 | 0.58 nM |
| B9 | 1.11 nM |
| B10 | 0.95 nM |
